The results in this text go back to article PMC7804310 (2021).

Holding throughout (assay): SPR
(In SPR one partner is held on a chip, and binding of the other changes the refractive index at the surface.)

The target of assay [1] is T1, recombinant human Melanotransferrin MTf(20-709) extracellular domain (human, UniProt P08582-1 20-709, N-glycans at Asn 38, Asn 135 and Asn 515 (high mannose N-glycans favoured by kifunensine for crystallization)).
T1 chain: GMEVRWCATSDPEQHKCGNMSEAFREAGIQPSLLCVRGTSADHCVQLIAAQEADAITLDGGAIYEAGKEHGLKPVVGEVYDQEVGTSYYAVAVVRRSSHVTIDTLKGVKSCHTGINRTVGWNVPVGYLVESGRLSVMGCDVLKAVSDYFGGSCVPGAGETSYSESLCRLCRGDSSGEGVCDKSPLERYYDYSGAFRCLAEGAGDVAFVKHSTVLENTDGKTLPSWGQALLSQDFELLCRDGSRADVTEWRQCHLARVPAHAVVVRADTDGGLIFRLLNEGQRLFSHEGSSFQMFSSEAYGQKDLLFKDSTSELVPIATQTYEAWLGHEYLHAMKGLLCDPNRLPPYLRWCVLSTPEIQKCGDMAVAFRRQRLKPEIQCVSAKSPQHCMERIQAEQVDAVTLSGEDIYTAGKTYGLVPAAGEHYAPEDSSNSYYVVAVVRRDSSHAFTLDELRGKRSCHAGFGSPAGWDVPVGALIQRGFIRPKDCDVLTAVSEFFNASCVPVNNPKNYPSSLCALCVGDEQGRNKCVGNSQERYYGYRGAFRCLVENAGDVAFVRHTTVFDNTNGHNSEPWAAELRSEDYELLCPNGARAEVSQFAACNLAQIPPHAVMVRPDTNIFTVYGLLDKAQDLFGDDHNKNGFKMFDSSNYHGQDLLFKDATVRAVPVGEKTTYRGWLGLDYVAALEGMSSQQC

Assay [2] deals with T1, recombinant human Melanotransferrin ….
Assay [3] addresses recombinant cynomolgus monkey MTf(20-709) extracellular domain (cynomolgus monkey).

B1: SC57.32 Fab fragment (Fab, V domains shown)
VH: QVQLQQSGAELMKPGASVKISCKATGYTFSNYRIEWIKQRPGHGLEWIGEILPRGGNTNYNEKFKGKATFTADTSSNTAYMQLTSLTSEDSAVYYCARDDGYYGRFAYWGQGTLVTVSA
VL: DIQMTQTTSSLSASLGDRVTISCRASQDISNYLNWYQQKPDGTVKLLIFYTSRLHSGVPSRFSGSGSGTDYSLTISNLEQEDFATYFCQQGNTLPPTFGGGTKLEIK
As usually defined, the koff is a measure of how fast the partners let go of each other. For orientation: Kd means the concentration at which binding is half-saturated. As to B1, the results for the dissociation rate constant (koff) in assay [1] and in assay [3] were 0.00048 s⁻¹ and 0.00047 s⁻¹, respectively. Also, the results for the Kd in assay [2] and in assay [3] were 1 nM and 1.1 nM, respectively.
